According to patent US20230303690A1 (published 2023):
Substitutions are numbered along the chain they refer to. Read-outs that look alike come from different tables or passages of the source. Blank lines part the entries; values can stand above or below the binder they belong to.

Assays:
[1] = target: T1, LAG3 Protein, Human, Recombinant (His Tag) (Sino Biological Catalog No. 16498-H08H) (human, UniProt P18627 23-450); assay: ELISA, coated hLAG3-His
T1 construct: Bought protein; also called hLAG3-His; LAG3-His; not shown: His tag
T1 sequence (looked up): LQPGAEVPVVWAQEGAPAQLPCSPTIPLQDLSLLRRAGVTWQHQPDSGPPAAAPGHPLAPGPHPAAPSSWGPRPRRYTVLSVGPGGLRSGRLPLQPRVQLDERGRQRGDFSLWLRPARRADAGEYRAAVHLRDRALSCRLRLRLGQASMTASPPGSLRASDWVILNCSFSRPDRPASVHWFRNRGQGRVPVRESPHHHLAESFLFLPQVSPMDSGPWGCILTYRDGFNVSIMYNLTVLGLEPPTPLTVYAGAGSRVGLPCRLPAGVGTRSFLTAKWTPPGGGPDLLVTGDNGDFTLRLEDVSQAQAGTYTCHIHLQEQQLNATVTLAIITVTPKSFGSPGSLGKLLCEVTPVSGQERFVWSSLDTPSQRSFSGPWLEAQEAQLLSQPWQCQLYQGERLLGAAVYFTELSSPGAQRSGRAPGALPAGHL
Procedure: (§1) Plates were coated with 100 µL per well of Coating Solution, and then covered, and incubated overnight (12-18 hours) at 2-8° C. The wells were aspirated and washed 1 time with >200 µL of Wash buffer per well, inverted and tapped on absorbent paper to remove excess liquid. The plates were blocked with 200 µL per well with Blocking buffer (1×PBS+4% milk) for 1 hour at room temperature, aspirated, inverted, and tapped on absorbent paper to remove excess liquid. Standards and sample dilutions were prepared in Blocking buffer. 100 µL of standards (in duplicate) and samples were pipetted into designated wells. After incubation for 1 hour at room temperature with gentle continual shaking (~500 rpm), the wells were aspirate and washed 3 times with >200 µL of Wash buffer per well, inverted and tapped on absorbent paper to remove excess liquid.
(§2) The primary antibody solution was diluted with Blocking buffer. See Table 14 for recommended primary antibody dilution. 100 µL of the primary antibody solution was added into each well and incubated for 2 hours at room temperature with gentle continual shaking (~500 rpm). The wells were aspirated and washed 3 times with >200 µL of Wash buffer per well, inverted and tapped on absorbent paper to remove excess liquid. The working solution of secondary antibody was made with Blocking buffer by diluting the secondary antibody by 2,500 times. 100 µL of secondary antibody working solution was added into each well and incubated for 30 minutes at room temperature. The wells were aspirated and washed 5 times with >200 µL of Wash buffer per well, inverted and tapped on absorbent paper to remove excess liquid. 100 µL of TMB substrate solution (Biopanda, TMB-S-004) was added to each well and incubated for 30 minutes at room temperature. 100 µL of Stop solution (Solarbio, C1058) was added to each well.

[2] = target: T2, human LAG3 expressed on cells (human, UniProt P18627 23-525); assay: FACS, 293T-hLAG3 cells
T2 construct: whole, on cells
T2 sequence (looked up): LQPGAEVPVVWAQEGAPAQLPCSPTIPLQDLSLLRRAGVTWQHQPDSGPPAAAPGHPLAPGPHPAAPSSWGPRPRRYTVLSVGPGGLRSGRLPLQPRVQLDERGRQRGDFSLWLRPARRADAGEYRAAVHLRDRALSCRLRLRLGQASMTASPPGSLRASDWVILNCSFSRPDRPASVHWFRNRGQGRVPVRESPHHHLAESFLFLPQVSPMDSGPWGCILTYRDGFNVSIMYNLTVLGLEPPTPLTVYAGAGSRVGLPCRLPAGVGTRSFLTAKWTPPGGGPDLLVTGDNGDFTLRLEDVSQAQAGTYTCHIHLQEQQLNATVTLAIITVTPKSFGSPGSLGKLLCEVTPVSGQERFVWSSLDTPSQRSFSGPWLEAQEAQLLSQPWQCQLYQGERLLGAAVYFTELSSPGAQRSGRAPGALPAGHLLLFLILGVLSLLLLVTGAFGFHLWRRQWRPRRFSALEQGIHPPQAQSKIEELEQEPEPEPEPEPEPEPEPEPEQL
Procedure: 5) The prepared antibody samples were added to the 96-well plate according to the platemap, the cells were resuspended and incubate at 4° C. for 1 hour.
7) 3% BSA/1xPBS was used to dilute Goat polyclonal Secondary Antibody to Human IgG-Fc (DyLight® 650) to the desired concentration (1:200), in which the cells were resuspended and incubated at 4° C. for 1 hour.
9) The cells were resuspended in 200 µl of 3% BSA/1xPBS, and performed flow cytometric testing by Shsti Biotech Inc.

[3] = target: T1, LAG3 Protein, Human, Recombinant (His …); assay: ELISA, coated hLAG3-His; remark: listed apart in the source
Procedure: as §1
as §2, with “well. Absorbance at 450 nm was measured within 30 minutes of adding Stop solution. Results were calculated using a log-log or 4-parameter curve fit.” for “well.”

[4] = target: T2, human LAG3 expressed on cells; assay: cell-based or functional assay
[5] = target: T2, human LAG3 expressed on cells; assay: cell ELISA, 293T-hLAG3 cells
Procedure: Each well was treated with stimulants. The cells were then fixed and blocked with Blocking buffer. The Primary antibodies were added. The wells were washed and a HRP-conjugated secondary antibody was added. The wells were washed with 1x PBS and a solution containing TMB (Biopanda, TMB-S-004) was added. The TMB reacted with HRP to change the color thereof from colorless to blue. An acid stop solution (Solarbio, C1058) was then added to stop the reaction and change the blue color to yellow.
Materials are listed below: [0072] […] 2) Blocking buffer: 1×PBS+3% BSA (Sigma, B2064); [0074] […] [0075] 4) Secondary antibody: Goat anti-human IgG1 Fc antibody, HRP (1:2500, invitrogen, A18817). [0076]

[6] = target: T1, LAG3 Protein, Human, Recombinant (His …); assay: SPR (Biacore), sdAb captured by anti-human Fc, LAG3-His analyte
Procedure: The binding of the single domain antibodies to recombinant human LAG3 protein (rhLAG3) was examined by Biacore™ assay. […] The coating was carried out according to the manufacturer’s instructions accompanying the kit (Catalog No. BR-1008-39, GE). […] The chip surface was regenerated after each cycle with 25 mM NaOH followed by HBS-EP wash provided in the kit.

EC50 [2]: 1.18 nM | FACS signal at 0.061 nM [2]: 234 | FACS signal at 0.1829 nM [2]: 585 | FACS signal at 0.5487 nM [2]: 1420 | FACS signal at 1.6461 nM [2]: 2810 | FACS signal at 4.9383 nM [2]: 3820 | FACS signal at 14.815 nM [2]: 4360 | FACS signal at 44.445 nM [2]: 4620 | FACS signal at 133.335 nM [2]: 4630 | EC50 [3]: 2.08 nM | OD450 at 0.061 nM [3]: 0.038 | OD450 at 0.1829 nM [3]: 0.057 | OD450 at 0.5487 nM [3]: 0.212 | OD450 at 1.6461 nM [3]: 1.15 | OD450 at 4.9383 nM [3]: 2.53 | OD450 at 14.815 nM [3]: 2.88 | OD450 at 44.445 nM [3]: 2.91 | OD450 at 133.335 nM [3]: 2.99
B5: sdAb No. 27-H1B3 (VHH)
VHH: QVQLVESGGGLVQPGGSLRLSCAASGFTLDYYAIGWFRQAPGKEREGVSCIRSSDASTYYADSVKGRFTISSDNSKNTVYLQMNSLRAEDTAVYYCATDRYSDCRGPYENWGQGTMVTVSS
notes: Humanized sdAb No. 27-H1; not shown: Fc part implied by anti-human IgG Fc detection

EC50 [1]: 3.73 nM | OD450 at 0.004572 ug/ml [1]: 0.038 | OD450 at 0.013717 ug/ml [1]: 0.043 | OD450 at 0.041152 ug/ml [1]: 0.063 | OD450 at 0.123457 ug/ml [1]: 0.334 | OD450 at 0.37037 ug/ml [1]: 1.43 | OD450 at 1.111111 ug/ml [1]: 1.96 | OD450 at 3.333333 ug/ml [1]: 2.08 | OD450 at 10 ug/ml [1]: 2.27 | EC50 [5]: 1.55 nM | OD450 at 0.0045725 ug/ml [5]: 0.075 | OD450 at 0.0137174 ug/ml [5]: 0.152 | OD450 at 0.0411523 ug/ml [5]: 0.314 | OD450 at 0.1234568 ug/ml [5]: 0.626 | OD450 at 0.3703704 ug/ml [5]: 1.07 | OD450 at 1.111111 ug/ml [5]: 1.16 | OD450 at 3.333333 ug/ml [5]: 1.14 | OD450 at 10 ug/ml [5]: 1.2
B6: sdAb No. 27-H2 (VHH)
VHH: B5 VHH with D55E, A56G, S75T, R87K, A88P, M116Q
notes: Modified sdAb No. 27 (CDR2 DG to EG); not shown: Fc part implied by anti-human IgG1 Fc detection

Further lines, the binder ahead of its results:

B1: sdAb No. 17-H5 (VHH)
VHH: QLQLVESGGGLVQPGGSLRLSCAASGLTLDAYAIGWFRQAPGKEREGLACISGSDASTHYLDSVKGRFTISRDNGKNTMALQMNSLQFGDTAIYYCAARRGSCSGSWTYWGQGTQVTVSS
notes: Modified sdAb No. 17 (CDR1 and CDR2 DG to DA); not shown: Fc part implied by anti-human IgG1 Fc detection
EC50 [1]: 1.19 nM

B2: sdAb No. 25-B7 (VHH)
VHH: QLQLVESGGGLVKPGGSLRLSCAASGSIESFSFMGWYRQAPGKQRELVAGFTGAASLSFSTYTDAVKGRFTISRDNAKNSVYLQMNSLRAEDTAVYFCNVDPWSQSWPGRYWGQGTTVTVSS
notes: Humanized sdAb No. 25; not shown: Fc part implied by anti-human IgG Fc detection
EC50 [2]: 0.6 nM | FACS signal at 0.061 nM [2]: 191 | FACS signal at 0.1829 nM [2]: 487 | FACS signal at 0.5487 nM [2]: 1110 | FACS signal at 1.6461 nM [2]: 1690 | FACS signal at 4.9383 nM [2]: 2030 | FACS signal at 14.815 nM [2]: 2210 | FACS signal at 44.445 nM [2]: 2480 | FACS signal at 133.335 nM [2]: 2380 | EC50 [3]: 2 nM | OD450 at 0.061 nM [3]: 0.038 | OD450 at 0.1829 nM [3]: 0.057 | OD450 at 0.5487 nM [3]: 0.132 | OD450 at 1.6461 nM [3]: 0.648 | OD450 at 4.9383 nM [3]: 1.25 | OD450 at 14.815 nM [3]: 1.41 | OD450 at 44.445 nM [3]: 1.33 | OD450 at 133.335 nM [3]: 1.66

B3: combination of sdAbs 25 and 27 (other)
VHH 1: B2 VHH with K13Q, P14A, S80T, R89K, A90P, T117Q
VHH 2: B5 VHH with A56G, S75T, R87K, A88P, M116Q
IL-2, % of BMS, at 0.005080526 ug/mL [4]: 0% | IL-2, % of BMS, at 0.015241579 ug/mL [4]: 4.21% | IL-2, % of BMS, at 0.045724737 ug/mL [4]: -1.96% | IL-2, % of BMS, at 0.137174211 ug/mL [4]: 10.8% | IL-2, % of BMS, at 0.411522634 ug/mL [4]: 39% | IL-2, % of BMS, at 1.234567901 ug/mL [4]: 51.2% | IL-2, % of BMS, at 3.703703704 ug/mL [4]: 62.3% | IL-2, % of BMS, at 11.11111111 ug/mL [4]: 69.3% | IL-2, % of BMS, at 33.33333333 ug/mL [4]: 79.8% | IL-2, % of BMS, at 100 ug/mL [4]: 83%

B4: sdAb No. 27-H1 (VHH)
VHH: B5 VHH with S75T, R87K, A88P, M116Q
notes: Modified sdAb No. 27 (CDR2 DG to DA); not shown: Fc part implied by anti-human IgG1 Fc detection
EC50 [1]: 3.28 nM | OD450 at 0.004572 ug/ml [1]: 0.04 | OD450 at 0.013717 ug/ml [1]: 0.043 | OD450 at 0.041152 ug/ml [1]: 0.063 | OD450 at 0.123457 ug/ml [1]: 0.36 | OD450 at 0.37037 ug/ml [1]: 1.42 | OD450 at 1.111111 ug/ml [1]: 1.8 | OD450 at 3.333333 ug/ml [1]: 2 | OD450 at 10 ug/ml [1]: 1.95 | EC50 [5]: 1.4 nM | OD450 at 0.0045725 ug/ml [5]: 0.076 | OD450 at 0.0137174 ug/ml [5]: 0.171 | OD450 at 0.0411523 ug/ml [5]: 0.359 | OD450 at 0.1234568 ug/ml [5]: 0.719 | OD450 at 0.3703704 ug/ml [5]: 1.08 | OD450 at 1.111111 ug/ml [5]: 1.17 | OD450 at 3.333333 ug/ml [5]: 1.24 | OD450 at 10 ug/ml [5]: 1.33

B7: sdAb No. 8 (VHH)
VHH: QLQLVESGGGLVQPGGSLRLSCAASGFTLDYYAIGWFRQAPGKEREGVSCISSSDGSTYYADSVKGRFTISRDNAKNTVYLQMNSLKPEDTAIYYCARDSLSGSGYGCRGPYDYWGQGTQVTVSS
notes: Fc of the tested form not described; not shown: Fc part implied by anti-human Fc capture
Kd [6]: 0.347 nM | koff [6]: 0.000277 s⁻¹ | kon [6]: 797000 M⁻¹ s⁻¹
